One may read the Kd as the concentration at which binding is half-saturated. Read a high Kd as lower affinity.

The test has as its target T1, human interleukin 5 receptor encoded by cDNA clone lambda-h5R.27 (human, UniProt Q01344 21-395).
T1 sequence: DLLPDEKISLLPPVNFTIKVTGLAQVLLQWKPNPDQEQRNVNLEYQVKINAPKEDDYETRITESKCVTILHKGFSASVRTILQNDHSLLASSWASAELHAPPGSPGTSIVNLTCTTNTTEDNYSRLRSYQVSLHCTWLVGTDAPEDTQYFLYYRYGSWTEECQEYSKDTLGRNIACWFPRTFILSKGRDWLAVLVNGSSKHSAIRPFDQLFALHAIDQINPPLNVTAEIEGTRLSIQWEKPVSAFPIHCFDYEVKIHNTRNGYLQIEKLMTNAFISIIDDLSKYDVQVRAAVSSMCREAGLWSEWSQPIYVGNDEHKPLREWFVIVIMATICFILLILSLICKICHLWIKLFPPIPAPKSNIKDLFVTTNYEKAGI
Briefly: radioligand binding.

B1: recombinant murine interleukin 5, 35S-methionine labelled (ligand, mouse, UniProt P04401 21-133, looked up)
chain: MEIPMSTVVKETLTQLSAHRALLTSNETMRLPVPTHKNHQLCIGEIFQGLDILKNQTVRGGTVEMLFQNLSLIKKYIDRQKEKCGEERRRTRQFLDYLQEFLGVMSTEWAMEG
modifications: 35S-methionine labelled
For B1, binding was characterised by a dissociation constant (Kd) of 250 pM.

Source of the values: publication PMC2119102 (The Journal of Experimental Medicine, 1992).
